Laboratory results: the supplement of paper PMC9170038

Tested on: MS2 coat protein
Assay: apparent KD of MS2 coat protein; designed switch direction (-1 OFF switch, 1 ON switch): -1; higher = weaker reporter binding
In short: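 Each step of the titration lasted 0.8–1.5 h at the lowest concentration and 10–20 min at the highest. The protein, SNAP-549-labelled MS2 coat protein, went from 0.7 or 1.5 nM doubling to 3 µM over RNA switches transcribed on Illumina chips by stalled E. coli RNA polymerase. Normalised cluster fluorescence was curve-fitted, and the per-design median over clusters is given as apparent KD.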

[1] = Eterna round: R95, input ligand: microRNA oligo, concentration not stated
[2] = Eterna round: R95, input ligand: FMN 200 uM
[3] = Eterna round: R95, input ligand: none

Row | Sequence | apparent KD of MS2 coat protein [1] [nM] | apparent KD of MS2 coat protein (input ligand: FMN 200 uM) [nM] | apparent KD of MS2 coat protein (input ligand: none) [nM] | further results
1 | GUGGCAUGAGGAUAUCGAGGUUAGUACAUGAGGAUCACCCAUGUUAUCCAGGUGUCGGUUCGAGAAGGCAUGGCAC [LRO-Ex5-13] (puzzle: Exclusion 5) | 250 |  |  | 
2 | GUGGUACAUGAGGAUCACCCAUGUAAGGAUAUAGUCGGCUGGUGGUCGCGGGUGGUGGCUAGAAGGUGCGUGCG [-19.6, -18.2 kcal, A 19%] (Eterna round: R97, puzzle: Exclusion 1) |  | 101 | 114 | 
3 | GUGUACAGAGGAUAUACUCGAAUCUAGCGAAGCUAGGUUUGACAUGAGGAUCACCCAUGUAGAAGGCUGUACAC [Dot plot directed A] (puzzle: Exclusion 2) | 13.8 |  |  | 
4 | GUGUACAGAGGAUAUGCUGGAAUCUAGCGAAGCUAGGUUCCACAUGAGGAUCACCCAUGUAGAAGGCUGUACAC [Dot plot directed A v4] (puzzle: Exclusion 2) | 19.4 |  |  | 
5 | GUGUAGAUAGGAUAUACAUGAGUCUAGCGAAGCUAGAUUCUACAUGAGGAUCACCCAUGUAGAAGGGUCUACAC [Fiskers Ex 2 - 28] (puzzle: Exclusion 2) | 14.3 |  |  | 
6 | GUGUAGCGAGGAUAUACAUGAGGAUCACCCAUGUGAAUAAGAUAGAAUAAGAUAAAGUGUAGAAGGUGUAGUGU [Excluse me!!! 11 - Jieux - Exclusion 3] (puzzle: Exclusion 3) | 56 |  |  | apparent KD of MS2 coat protein [2]: 46.7 nM; apparent KD of MS2 coat protein [3]: 54.5 nM
7 | GUGUGCAGAGGAUAUACAUAGGAAUAUAAUAUAAUAUAAUUACAUGAGGAUCACCCAUGUAGAAGGCUGAGUGU [Excluse me!! 18 - Jieux - Exclusion 2] (puzzle: Exclusion 2) | 24.3 |  |  | 
8 | GUGUGCUGAGGAUAUACACAGGAAUAGAAGAUAAGAUAAUCACAUGAGGAUCACCCAUGUAGAAGGCAGAGUGU [Excluse me!! 17 - Jieux - Exclusion 2] (puzzle: Exclusion 2) | 13.9 |  |  | 
9 | GUGUGCUGAGGAUAUACAGAGGAAGAUAAUAGAAUAGAAUGACAUGAGGAUCACCCAUGUAGAAGGCAGAGUGU [Excluse me!! 14 - Jieux - Exclusion 2] (puzzle: Exclusion 2) | 26.3 |  |  | apparent KD of MS2 coat protein [2]: 40.5 nM; apparent KD of MS2 coat protein [3]: 33.1 nM
10 | GUGUUUCGUGUAGGAUAUGUUUGUGGGUCGCGGGCAGAAGGACAUGAGGAUCACCCAUGUUGCGGGUUCGGUUUGUGCGGGCGC [-22, -20 kcal and 14% A] (Eterna round: R96, puzzle: Exclusion NG 1) |  | 23.6 | 22.3 | apparent KD of MS2 coat protein (input ligand: microRNA oligo, concentration not stated): 17.1 nM
11 | GUUAAACAUGAGGAUCACCCAUGUAAGGAUAUGCUGAGGUAGCGCUGACGUGAAUGAAGCAGAAGGUACAAAUG [Mat - Mod of JL D64] (puzzle: Exclusion 1) | 93.3 |  |  | apparent KD of MS2 coat protein [2]: 66.4 nM; apparent KD of MS2 coat protein [3]: 62 nM
12 | GUUAACGUAGGAUAUUAGUACAUGCACAUGAGGAUCACCCAUGUUUAGUGGGUCUAGGAAUAAGAAGGGCGAUGAA [EX5 #22] (Eterna round: R97, puzzle: Exclusion 5) |  | 472 | 567 | 
13 | GUUAAGGUAGGAUAUACGAGAAUAUAGGGUAGAUAUAUAACACAUGAGGAUCACCCAUGUAGAAGGACCAAUUG [Mat - Exclusion 2 - Mod of my Tesla design - D57] (puzzle: Exclusion 2) | 33.1 |  |  | 
14 | GUUAAGGUAGGAUAUACGAUAAGAUAGGGUAGAUAUAUAACACAUGAGGAUCACCCAUGUAGAAGGACCAAUUG [Mat - Exclusion 2 - Mod of my Tesla design - D56] (puzzle: Exclusion 2) | 29.2 |  |  | 
15 | GUUAAUUGUCAGAUGGGUGACAUGAGGAUCACCCAUGUCACAAGCUUUUUGCUCGUCUUAUAAUUAACCCAUCUGAC [Stov1/11-A3] (Eterna round: R97, puzzle: Sensor, turn-off variant 1) |  | 13.6 | 13.3 | 
16 | GUUACACAUGAGGAUCACCCAUGUAAGGAUAUGCUGCGGUCGCGCUGACGUGACUGCAGCAGAAGGUACACAUG (puzzle: Exclusion 1) | 86.8 |  |  | 
17 | GUUAGCGUAGGAUAUUAGUACAUGAACAUGAGGAUCACCCAUGUGAGGUGGGUCUUAGAUUAAGAAGGGCGAAGAA [EX5 #31] (Eterna round: R97, puzzle: Exclusion 5) |  | 387 | 447 | 
18 | GUUAGUUAAGGAUAUACUGGGAGCUGCGGCGUCUCGCCGCAACAUGAGGAUCACCCAUGUAGAAGGUGACCAUU [JL ViennaUCT Enbibi mod 5] (puzzle: Exclusion 2) | 221 |  |  | 
19 | GUUCCGGGAGGAUAUACAUGAGGAUCACCCAUGUUCACCAGCUUUAGCUACGACCUAUGUAGAAGGUCUGGAGA [Eternabot (L1) Solution 36] (Eterna round: R97, puzzle: Exclusion 3) |  | 46.7 | 39.7 | 
